Data reported in the RNAGym collection of RNA variant scans (doi:10.7554/elife.90254).

B1: LINE1-full (parent)
chain: UACGUAGGUGGUUUUCCCCUGAUAGUGCUAAGGGGGCCUGGAAGUUUGGACUGGGCAGAGCUCAACACAGCGUGGCAAAGUGGCUGUGGCUAGACUGCCUCUCUGGAUUCCUCGUCACUCAGCAGGGCAUCUCUGAGAGAAAUGCC

Variants of: B1
Experiment: self-cleavage, relative activity (ratio to wild type); higher = more cleavage; in vitro, sequencing; the parent is a self-cleaving ribozyme
For G49C U115C, the self-cleavage was 2.02. Variant A50U A124U has a self-cleavage of 1.11. With A50G A77U the self-cleavage was 0.73. For A50G A77G, the self-cleavage was 1.42. Variant A50G U102G has a self-cleavage of 0.51. A50U G55A showed a self-cleavage of 0.08. C51U U119C showed a self-cleavage of 1.73. In the case of G49U U143C, the self-cleavage is reported as 0.84. In the case of A50G G114A, the self-cleavage is reported as 0.98. In the case of U52A A92G, the self-cleavage is reported as 0.11. Work on C51A U96A yielded a self-cleavage of 0.11. G48A U62A gave a self-cleavage of 0.02. G48A U73A gave a self-cleavage of 1.36. In the case of C51U C131A, the self-cleavage is reported as 1.23. For U47C U112C, the self-cleavage was 2. With U47C U112A the self-cleavage was 1.02. Work on C51A G53A yielded a self-cleavage of 1.92. Variant A50U C111U has a self-cleavage of 0.77. With U52A C84U the self-cleavage was 0.14. A50C A142G gave a self-cleavage of 1.78. Work on G49U U134C yielded a self-cleavage of 1.63. Work on G49U U134A yielded a self-cleavage of 1.19. Variant A50C A136C has a self-cleavage of 2.04. Variant G49A A142G has a self-cleavage of 0.98. U52A U87C showed a self-cleavage of 0.29. G49A U52C showed a self-cleavage of 1.35. Work on A50G U85C yielded a self-cleavage of 0.1. Work on A50G U85A yielded a self-cleavage of 0.05. C51A A140G gave a self-cleavage of 1.04. G48A A64U showed a self-cleavage of 0.39. Variant C51A A67G has a self-cleavage of 0.63. With C51A A67U the self-cleavage was 0.1. For G48A U91C, the self-cleavage was 0.09. Work on G49U C95G yielded a self-cleavage of 0.04. G48U A121G showed a self-cleavage of 0.99. In the case of U52A C123U, the self-cleavage is reported as 1.11. With A50G U109C the self-cleavage was 0.96. For A50G U109A, the self-cleavage was 0.84. With U52A C131U the self-cleavage was 1.46. In the case of A50U U134C, the self-cleavage is reported as 0.98. A50U U134A gave a self-cleavage of 0.92. Work on A50U U52C yielded a self-cleavage of 0.89. A50U U52A gave a self-cleavage of 1.17. In the case of A50U G80C, the self-cleavage is reported as 0.82. With A50C U85A the self-cleavage was 0.04. With A50C U85C the self-cleavage was 0.06. With A50G A79U the self-cleavage was 1.09. Work on A50C U87C yielded a self-cleavage of 0.13. G49A A69G showed a self-cleavage of 0.36. Variant A50G G53A has a self-cleavage of 1.09. For A50G G53U, the self-cleavage was 0. Variant A50G A69C has a self-cleavage of 0. Work on A50U A77G yielded a self-cleavage of 0.43. For A50U A77U, the self-cleavage was 0.83. In the case of U52A A141C, the self-cleavage is reported as 1.48. Work on U52A A141U yielded a self-cleavage of 1.35. A50G C63A gave a self-cleavage of 0.02. With A50G U119C the self-cleavage was 1.11. Work on G48U yielded a self-cleavage of 0.94. G48A gave a self-cleavage of 1.28. G48C showed a self-cleavage of 1.01. A50G U134C showed a self-cleavage of 0.86. Variant A50G U134G has a self-cleavage of 0.19. Work on U52A U109C yielded a self-cleavage of 1.21. For C51U A142G, the self-cleavage was 1.7. Work on C51U A142C yielded a self-cleavage of 1.25. With A50C U132C the self-cleavage was 1.02. In the case of U52A A79G, the self-cleavage is reported as 1.09. For U52A A94G, the self-cleavage was 0.33. U52A A94U gave a self-cleavage of 0.52. G48U G125A gave a self-cleavage of 1.17. Variant G49A U119C has a self-cleavage of 0.62. In the case of A50G U143A, the self-cleavage is reported as 1.7. For A50G U143C, the self-cleavage was 0.95. Variant C51A U109C has a self-cleavage of 1.35. For U52A A140G, the self-cleavage was 1.08. Work on A50G A138U yielded a self-cleavage of 0.95. U52A U81A showed a self-cleavage of 1.49. With G48U U134C the self-cleavage was 1.14. With U47G A67G the self-cleavage was 0.06. With A50U U62A the self-cleavage was 0.01. A50U A141G showed a self-cleavage of 0.68. For A50G C61U, the self-cleavage was 0.05.
